Measured values from doi:10.1101/2020.12.03.409995, “Wild-type sTREM2 blocks Aβ aggregation and neurotoxicity, while the Alzheimer’s R47H mutant does the opposite” (bioRxiv, 2020).

Target: T1, HiLyte Fluor 488-labelled Aβ42 oligomers (human, UniProt P05067 672-713, HiLyte Fluor 488 label (position not given))
T1 construct: amyloid beta-peptide 1-42 (Aβ42), human, the cut product of the amyloid precursor protein; Oligomeric species in the 6 hour aggregation mixture, told from monomers by photobleaching; also called Aβ oligomers; oligomeric Aβ; source: synthetic peptide, bought: AnaSpec; aggregated at 0.5 μM in PBS pH 7.4 for 6 hours
Assay: single-molecule TIRF two-colour coincidence detection; HiLyte Fluor 488 Aβ42 aggregated 6 hours at 0.5 μM in PBS pH 7.4, dye-labelled sTREM2 added and imaged on slides; monomers told from oligomers by photobleaching; chance coincidence subtracted
Conditions: both partners purified

B1: dye-labelled wild-type sTREM2 (TREM2 ectodomain) for single-molecule TIRF (domain or fragment, UniProt Q9NZC2 19-143, looked up)
chain: HNTTVFQGVAGQSLQVSCPYDSMKHWGRRKAWCRQLGEKGPCQRVVSTHNLWLLSFLRRWNGSTAITDDTLGGTLTITLRNLQPHDAGLYQCQSLHGSEADTLRKVLVEVLADPLDHRDAGDLWF
modifications: fluorescent dye label: TAMRA in the results, AF647 in the methods (position not given)
notes: TREM2 residues 19-143, wild type; The labelled form of m10; also called TAMRA-dye labelled sTREM2; AF647-TREM2; source: Freestyle 293-F cells, transfected (pHLSec), purified from conditioned medium (IMAC, gel filtration), dye-labelled
B1: binds.
